“And” between values parts separate entries of the source, which are not always exact repeats. Identical values can stand only once.
How the values were obtained:
[1] = design: species or system human; settings: in vivo
Procedure: (§1) Study drug administration: a single injection of 10 MBq for ^212Pb-Compound 1 was administered for each participant. Administration was by slow bolus IV injection via a 3-way adapter coupled to a conventional isotonic saline solution. • The timepoint of injection of ^212Pb-Compound 1 was defined as Day 0, 0 hours. […] Full blood and plasma were measured separately to investigate ligand in vivo stability. […]
(§2) • Non-invasive gamma camera imaging with both planar gamma imaging (whole body scintigraphy) and SPECT/CT was performed at 2 timepoints following injection of ^212Pb-Compound 1: • 1-3 hours and 16-24 hours • The planar gamma camera imaging was acquired immediately before the SEPCT/CT imaging • Performed on a Siemens Symbia Intevo Bold hybrid scanner using a medium energy low penetration (MELP) or high energy (HE) collimator. • The same scanner was used for all acquisitions of all patients in the study. • Scanner room background radiation was measured 0.5 m from the SPECT/CT scanner table, over a time period of one minute, before the participant entered the scanner room. […]

[2] = design: species or system human; settings: in vivo; remark: listed apart in the source
Procedure: The sample size was three participants.
Study drug administration: a single injection of 10 MBq for ^212Pb-Compound 1 was administered for each participant. Administration was by slow bolus IV injection via a 3-way adapter coupled to a conventional isotonic saline solution. • The timepoint of injection of ^212Pb-Compound 1 was defined as Day 0, 0 hours. Imaging, whole-body probe and blood assessments of clearance were performed at the following timepoints: • Gamma camera imaging (both planar and SPECT/CT) was scheduled 1-3 hours and 16-24 hours post injection. • Clearance was assessed with blood sampling and whole-body probe measurements at the following timepoints: 15 min after dose (+/−15 min window), 1 h after dose (+1 h window), 4 h after dose (+2 h window), 16 h after dose (+8 h window). Full blood and plasma were measured separately to investigate ligand in vivo stability. Follow-up: Patients were followed-up for safety and tolerability for 28 days post-administration of ^212Pb-Compound 1, with visits on Day 14 and Day 28. Adverse events were reported per CTCAE v5 from time of informed consent until end of follow-up. Patients were followed-up for efficacy biomarkers (PSA, ALP) for 28 days post-administration of ^212Pb-Compound 1.
All 3 patients consented and administered ^212Pb-Compound 1 subsequently completed the planned safety follow up period (no withdrawals from the clinical trial).

[3] = design: species or system human; settings: in vivo; remark: listed apart in the source
Procedure: as §1, §2

[4] = Baseline F18-PSMA-PET/CT: normal tissue evaluation at screening; format: in vivo, human; settings: individual participants
Procedure: Participants underwent a standard of care diagnostic ^18F-PSMA-PET/CT at baseline (i,e, within six weeks prior to administration of ^212Pb-Compound 1).
PSMA-PET/CT was conducted using the radiotracer ^18F-PSMA-1007: dose 2.5 MBq/kg (minimum 200 MBq, maximum 300 MBq) with PET acquisition performed approximately 120 minutes post-injection.
Each patient received a baseline PSMA-PET/CT evaluation utilizing an F18-PSMA-PET tracer during the screening period (i.e. prior to ^212Pb-Compound 1 administration).
The pattern of PSMA-PET CT tracer uptake in normal organs is within expectations in each case; with notable uptake in the salivary glands (SUVmax range 20.06-30.7), kidneys (SUVmax range 18.7-35.2) and liver (SUVmax range 14.5-25.5).

[5] = in vivo; cited from earlier work

NC(=O)CN1CCN(CC(N)=O)CCN(CC(N)=O)C(Cc2ccc(NC(=S)NC[C@H]3CC[C@H](C(=O)N[C@@H](Cc4ccc5ccccc5c4)C(=O)NCCCC[C@H](NC(=O)N[C@@H](CCC(=O)O)C(=O)O)C(=O)O)CC3)cc2)CN(CC(N)=O)CC1 (stereo partly shown) [^212Pb-Compound 1, metal not drawn]
^212Pb-Compound 1 uptake in retrocaval lymph node metastasis (most PSMA-avid lesion) [1]: uptake at the 1 hour time point for one lesion | Adverse reactions, SAEs, SUSARs or deaths [2]: No adverse reactions, serious adverse events (SAEs), suspected unexpected serious adverse events (SUSARs) or deaths were reported | CTCAE grade of the TEAE abdominal pain [2]: 2 | Differences or trends in hematology, biochemistry and urinalysis from baseline (incl. ALT, AST, bilirubin, albumin, egfr, creatinine) [2]: no clinically significant differences or trends | ECOG performance score at all visits evaluated [2]: 1 | ECOG performance status, change from baseline to end of study visit [2]: remained unchanged | Individual measurements of hematological and clinical chemistry parameters [2]: within their normal reference ranges | Investigator-assessed relationship of all TEAEs to ^212Pb-Compound 1 [2]: probably unrelated | Number (%) of Participants with TEAE: Abdominal pain [2]: 1 (33) | Number (%) of Participants with TEAE: Constipation [2]: 1 (33) | Number (%) of Participants with TEAE: Erythema [2]: 1 (33) | Number (%) of Participants with TEAE: General disorders and administration site conditions [2]: 1 (33) | Number (%) of Participants with TEAE: Injury, poisoning and procedural complications [2]: 1 (33) | Number (%) of Participants with TEAE: Localized oedema [2]: 1 (33) | Number (%) of Participants with TEAE: Skin and subcutaneous tissue disorders [2]: 1 (33) | Number (%) of Participants with TEAE: Tooth fracture [2]: 1 (33) | Number (%) of Participants with TEAE: Vomiting [2]: 1 (33) | Performance status (ECOG) [2]: 1 | Risk of xerostomia inferred from absent salivary gland uptake [2]: lower risk of xerostomia | Participants with ^212Pb-Compound 1 uptake by the liver [3]: one participant at the 1 hr time point

O=C(O)CC[C@H](NC(=O)N[C@@H](CCCCNC(=O)[C@H](Cc1ccc2ccccc2c1)NC(=O)c1ccc(CNC(=O)[C@H](CCC(=O)O)NC(=O)[C@H](CCC(=O)O)NC(=O)c2ccc([18F])nc2)cc1)C(=O)O)C(=O)O [Compound F18-PSMA-PET]
SUV max, Bladder, including contents [4]: 8.3 and 2.8 and 3 | SUV max, Blood pool [4]: 1.2 and 0.8 and 1.3 | SUV max, Bone Marrow [4]: 1.8 and 1.3 and 1 | SUV max, Kidneys [4]: 35.2 and 26.8 and 18.7 | SUV max, Liver [4]: 14.5 and 25.5 and 14.8 | SUV max, Salivary gland [4]: 30.7 (2×) and 20.6 | SUV max, Spleen [4]: 16.2 and 7.2 and 15.3 | SUV mean, Bladder, including contents [4]: 6.2 and 2.3 (2×) | SUV mean, Blood pool [4]: 0.7 and 0.6 and 1.1 | SUV mean, Bone Marrow [4]: 1.3 and 0.9 and 0.7 | SUV mean, Kidneys [4]: 19.2 and 16.1 and 11.4 | SUV mean, Liver [4]: 11.3 and 21.8 and 12.5 | SUV mean, Salivary gland [4]: 18.5 and 13 and 19.8 | SUV mean, Spleen [4]: 12.6 and 6.1 and 13.7 | SUV max, Kidneys ([4]; listed as PSMA-PET CT tracer): 18.7 to 35.2 | SUV max, Liver ([4]; listed as PSMA-PET CT tracer): 14.5 to 25.5

O=C([O-])CN1CCN(CC(=O)[O-])CCN(CC(=O)NCC2CCC(C(=O)N[C@@H](Cc3ccc4ccccc4c3)C(=O)NCCCC[C@H](NC(=O)N[C@@H](CCC(=O)O)C(=O)O)C(=O)O)CC2)CCN(CC(=O)[O-])CC1.[177Lu+3] (stereo partly shown) [^177Lu-PSMA-617, lutetium Lu 177 vipivotide tetraxetan]
Dry mouth (i.e., xerostomia), proportion of population [5]: 38.8%

Source: US20250281653A1, “METHODS FOR TREATING PROSTATE CANCER WITH RADIOPHARMACEUTICALS” (ARTBIO, Inc., priority 2024, published 2025)
